According to US20260071233A1:

Target: Recombinant rat IFN-γ (rat) (UniProt P01581)
UniProt P01581, sequence (P01581 23-156 limits assumed): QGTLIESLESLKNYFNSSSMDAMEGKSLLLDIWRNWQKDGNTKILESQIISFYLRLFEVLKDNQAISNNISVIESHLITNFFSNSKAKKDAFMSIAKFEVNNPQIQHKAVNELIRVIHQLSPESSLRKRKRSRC

Substance: Recombinant B8R protein
- percent neutralization: > 50%
